B1: NECAB1 (parent)
chain: FSPNSPQFNVSGPGLLEEDNQWMT

Variants of: B1
Experiment: protein stability index of a GFP-peptide fusion (GPS, HEK-293T) (PSI 1-6); higher = more stable
Details: c terminus: a fixed tail appended
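Further: lentivirally expressed fusions sorted by FACS into six bins by GFP to DsRed ratio, PSI derived from sequencing read proportions per bin multiplied by bin number.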

| Variant | protein stability index |
| --- | --- |
| FSPNSPQFMVSGPGLLEEDNQWMT [N9M] | 2.42 |
| FSPNSPQFHVSGPGLLEEDNQWMT [N9H] | 2.22 |
| FSPNSPQFLVSGPGLLEEDNQWMT [N9L] | 2.12 |
| FSPNSPQFPVSGPGLLEEDNQWMT [N9P] | 3.06 |
| FSPNSPQFAVSGPGLLEEDNQWMT [N9A] | 2.35 |
| FSPNSPQFDVSGPGLLEEDNQWMT [N9D] | 3.67 |
| FSPNSPQFYVSGPGLLEEDNQWMT [N9Y] | 3.54 |
| FSPNSPQFSVSGPGLLEEDNQWMT [N9S] | 2.84 |
| FSPNSPQFNRSGPGLLEEDNQWMT [V10R] | 3.38 |
| FSPNSPQFNTSGPGLLEEDNQWMT [V10T] | 2.89 |
| FSPNSPQFNISGPGLLEEDNQWMT [V10I] | 3.09 |
| FSPNSPQFNPSGPGLLEEDNQWMT [V10P] | 3.16 |
| FSPNSPQFNLSGPGLLEEDNQWMT [V10L] | 2.74 |
| FSPNSPQFNHSGPGLLEEDNQWMT [V10H] | 3.63 |
| FSPNSPQFNDSGPGLLEEDNQWMT [V10D] | 4.09 |
| FSPNSPQFNQSGPGLLEEDNQWMT [V10Q] | 3.32 |
| FSPNSPQFNVSGPGLLEEDNQWRT [M23R] | 3.08 |
| FSPNSPQFNVSGPGLLEEDNQWIT [M23I] | 2.45 |
| FSPNSPQFNVSGPGLLEEDNQWCT [M23C] | 2.67 |
| FSPNSPQFNVSGPGLLEEDNQWQT [M23Q] | 3.43 |
| FSPNSPQFNVSGPGLLEEDNQWDT [M23D] | 4.65 |
| FSPNSPQFNVSGPGLLEEDNQWYT [M23Y] | 2.77 |
| FSPNSPQFNVSGPGLLEEDNQWHT [M23H] | 2.8 |
| FSPNSPQFNVSGPGLLEEDNQWTT [M23T] | 3 |

| Variant | protein stability index |
| --- | --- |
| FSPNSPQCNVSGPGLLEEDNQWMT [F8C] | 3.42 |
| FSPNSPQMNVSGPGLLEEDNQWMT [F8M] | 3.65 |
| FSPNSPQRNVSGPGLLEEDNQWMT [F8R] | 3.65 |
| FSPNSPQTNVSGPGLLEEDNQWMT [F8T] | 3.5 |
| FSPNSPQNNVSGPGLLEEDNQWMT [F8N] | 4.29 |
| FSPNSPQYNVSGPGLLEEDNQWMT [F8Y] | 3.43 |
| FSPNSPQFNVSGPGLLEEDNQHMT [W22H] | 3.84 |
| FSPNSPQFNVSGPGLLEEDNQRMT [W22R] | 3.93 |
| FSPNSPQFNVSGPGLLEEDNQFMT [W22F] | 3.59 |
| FSPNSPQFNVSGPGLLEEDNQKMT [W22K] | 3.54 |
| FSPNSPQFNVSGPGLLEEDNQTMT [W22T] | 3.83 |
| FSPNSPQFNVSGPGLLEEDNQCMT [W22C] | 4.1 |
| FSPNSPQFNVSGPGLLEEDNQMMT [W22M] | 3.39 |
| FSPNSPQFNVSGPGLLEEDNVWMT [Q21V] | 1.72 |
| FSPNSPQFNVSGPGLLEEDNRWMT [Q21R] | 2.28 |
| FSPNSPQFNVSGPGLLEEDNIWMT [Q21I] | 1.95 |
| FSPNSPQFNVSGPGLLEEDNNWMT [Q21N] | 1.84 |
| FSPNSPQFNVSGPGLLEEDNHWMT [Q21H] | 2.57 |
| FSPNSPQFNVSGPGLLEEPNQWMT [D19P] | 2.03 |
| FSPNSPQFNVSGPGLLEEWNQWMT [D19W] | 2.02 |
| FSPNSPQFNVSGPGLLEEKNQWMT [D19K] | 2.18 |
| FSPNSPQFNVSGPGLLEEANQWMT [D19A] | 2.11 |
| FSPNSPQFNVSGPGLLEEGNQWMT [D19G] | 2.33 |
| FSPNSPQFNVSGPGLLEEHNQWMT [D19H] | 2.79 |

| Variant | protein stability index |
| --- | --- |
| FSPNSPQFNVSGPGLLEEINQWMT [D19I] | 2.55 |
| FSPNSPQFNVSGPGLLEECNQWMT [D19C] | 2.72 |
| FSPNSPQFNVSGPGLLEESNQWMT [D19S] | 2.33 |
| FSPNSQQFNVSGPGLLEEDNQWMT [P6Q] | 2.48 |
| FSPNSWQFNVSGPGLLEEDNQWMT [P6W] | 4.26 |
| FSPNSVQFNVSGPGLLEEDNQWMT [P6V] | 2.56 |
| FSPNSEQFNVSGPGLLEEDNQWMT [P6E] | 3.88 |
| FSPNSFQFNVSGPGLLEEDNQWMT [P6F] | 2.28 |
| FSPNSCQFNVSGPGLLEEDNQWMT [P6C] | 2.26 |
| FSPNDPQFNVSGPGLLEEDNQWMT [S5D] | 4.04 |
| FSPNGPQFNVSGPGLLEEDNQWMT [S5G] | 2.72 |
| FSPNHPQFNVSGPGLLEEDNQWMT [S5H] | 3.16 |
| FSPNCPQFNVSGPGLLEEDNQWMT [S5C] | 3 |
| FSPNNPQFNVSGPGLLEEDNQWMT [S5N] | 3.03 |
| FSPNTPQFNVSGPGLLEEDNQWMT [S5T] | 2.98 |
| FSPNQPQFNVSGPGLLEEDNQWMT [S5Q] | 3.7 |
| FSPNIPQFNVSGPGLLEEDNQWMT [S5I] | 2.75 |
| FSPNFPQFNVSGPGLLEEDNQWMT [S5F] | 2 |
| FSPNSPQFNVSGPVLLEEDNQWMT [G14V] | 2.89 |
| FSPNSPQFNVSGPRLLEEDNQWMT [G14R] | 2.63 |
| FSPNSPQFNVSGPPLLEEDNQWMT [G14P] | 3.17 |
| FSPNSPQFNVSGPFLLEEDNQWMT [G14F] | 2.35 |
| FSPNSPQFNVSGPELLEEDNQWMT [G14E] | 3.58 |
| FSPNSPQFNVSGPLLLEEDNQWMT [G14L] | 2.62 |

| Variant | protein stability index |
| --- | --- |
| FSPNSPQFNVSGPILLEEDNQWMT [G14I] | 2.29 |
| FSPNSPQFNVSGPTLLEEDNQWMT [G14T] | 2.52 |
| FSPNSPQFNVSGPDLLEEDNQWMT [G14D] | 3.73 |
| FSPNSPQFNVSGPGLLEQDNQWMT [E18Q] | 1.97 |
| FSPNSPQFNVSGPGLLECDNQWMT [E18C] | 1.89 |
| FSPNSPQFNVSGPGLLEHDNQWMT [E18H] | 2.39 |
| FSPNSPQFNVSGPGLLEIDNQWMT [E18I] | 2.4 |
| FSPNSPQFNVSGPGYLEEDNQWMT [L15Y] | 3.05 |
| FSPNSPQFNVSGPGSLEEDNQWMT [L15S] | 3.3 |
| FSPNSPQFNVSGPGGLEEDNQWMT [L15G] | 2.91 |
| FSPNSPQFNVSGPGCLEEDNQWMT [L15C] | 3.04 |
| FSPNSPQFNVSGPGWLEEDNQWMT [L15W] | 2.68 |
| FSPNSPQFNVSGPGNLEEDNQWMT [L15N] | 3.27 |
| FSPNSPQFNVSGPGLLAEDNQWMT [E17A] | 2.4 |
| FSPNSPQFNVSGPGLLREDNQWMT [E17R] | 2.86 |
| FSPNSPQFNVSGPGLLLEDNQWMT [E17L] | 2.29 |
| FSPNSPQFNVSGPGLLPEDNQWMT [E17P] | 2.58 |
| FSPNSPQFNVSGPGLLTEDNQWMT [E17T] | 2.36 |
| FSPNSPQFNVSGPGLLQEDNQWMT [E17Q] | 3.13 |
| FSPNSPQFNVSGPGLLWEDNQWMT [E17W] | 2.82 |
| FFPNSPQFNVSGPGLLEEDNQWMT [S2F] | 3.06 |
| FKPNSPQFNVSGPGLLEEDNQWMT [S2K] | 3.63 |

From the supplement of paper PMC10567573
